The subject of series [1] is ZFN 25716 (E32 ZFN6 monomer) (artificial). As to the kind of experiment: cell_activity. As to conditions: pair 25716/25717, NGS indels in maize Hi-II callus.
For series [2], the system named is ZFN 25717 (E32 ZFN6 monomer) (artificial). Nature of the series: cell_activity. The note with it: pair 25716/25717, NGS indels in maize Hi-II callus.

“TGATCGCATCGGGCATCGGCGACTGATG (double strand) [25716 target]” showed an activity (% of IPPK2 ZFN activity) in series [1] of 380. Take “CGGAAGCGGATGGCCCGCTTCTTTAGAA (double strand) [25717 target]”: in series [2], the activity (% of IPPK2 ZFN activity) was 380.

The record behind these values is patent US20140173783.
